Assay results published in paper PMC3414502, “γ-Synuclein Interacts with Phospholipase Cβ2 to Modulate G Protein Activation” (PLoS ONE, 2012).

Molecular target: T1, His6-PLCβ2 (phospholipase Cβ2) (UniProt Q00722 1-1185, CPM (thiol-reactive coumarin) on Cys side chains where printed as CPM-PLCβ2; Dabcyl where printed as PLCβ2 with DAB acceptor; unlabelled elsewhere)
T1 construct: phospholipase C β2; called the full length / whole enzyme; printed mass 133.7 kDa; One construct used CPM-labelled, Dabcyl-labelled or unlabelled; also called PLCß2; CPM-PLCβ2; source: Sf9 cells, baculovirus system, purified
T1 sequence (Q00722 whole entry): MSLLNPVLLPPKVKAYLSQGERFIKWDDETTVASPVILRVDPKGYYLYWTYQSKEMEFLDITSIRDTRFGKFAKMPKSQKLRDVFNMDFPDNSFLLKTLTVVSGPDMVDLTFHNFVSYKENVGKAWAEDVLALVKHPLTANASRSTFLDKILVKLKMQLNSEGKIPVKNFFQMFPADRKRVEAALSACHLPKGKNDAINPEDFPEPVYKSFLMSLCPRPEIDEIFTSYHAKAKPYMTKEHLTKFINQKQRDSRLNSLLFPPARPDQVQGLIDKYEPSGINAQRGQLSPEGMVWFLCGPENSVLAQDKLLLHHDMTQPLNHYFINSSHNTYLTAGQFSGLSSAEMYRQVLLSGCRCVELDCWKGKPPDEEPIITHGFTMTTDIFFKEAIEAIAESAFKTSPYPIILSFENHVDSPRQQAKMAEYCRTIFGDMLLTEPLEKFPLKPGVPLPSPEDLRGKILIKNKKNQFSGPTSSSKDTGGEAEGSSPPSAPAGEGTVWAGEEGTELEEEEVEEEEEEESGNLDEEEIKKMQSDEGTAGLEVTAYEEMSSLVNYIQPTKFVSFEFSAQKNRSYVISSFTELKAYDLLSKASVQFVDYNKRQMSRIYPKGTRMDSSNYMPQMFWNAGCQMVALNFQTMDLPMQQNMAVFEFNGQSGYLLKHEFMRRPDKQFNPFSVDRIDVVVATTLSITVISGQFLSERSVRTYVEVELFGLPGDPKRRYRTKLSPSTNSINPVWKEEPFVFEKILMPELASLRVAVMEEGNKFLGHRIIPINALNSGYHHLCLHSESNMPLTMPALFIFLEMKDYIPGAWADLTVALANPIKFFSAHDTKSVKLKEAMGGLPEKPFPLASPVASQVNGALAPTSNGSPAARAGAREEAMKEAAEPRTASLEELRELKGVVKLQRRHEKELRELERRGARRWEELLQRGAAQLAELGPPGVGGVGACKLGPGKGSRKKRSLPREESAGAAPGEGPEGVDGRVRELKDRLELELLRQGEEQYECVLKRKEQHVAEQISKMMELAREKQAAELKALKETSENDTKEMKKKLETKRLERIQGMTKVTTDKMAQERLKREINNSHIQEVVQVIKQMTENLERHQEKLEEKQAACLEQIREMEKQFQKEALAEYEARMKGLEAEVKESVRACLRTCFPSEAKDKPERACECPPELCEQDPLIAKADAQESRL
Assay: other fluorescence titration; activated Gαq and PLCß2, without γ-synuclein; which partner was labelled is not stated
Settings: both partners purified

B1: Gαq(GTPγS) (natural protein, UniProt P50148 1-359, looked up)
chain: MTLESIMACCLSEEAKEARRINDEIERQLRRDKRDARRELKLLLLGTGESGKSTFIKQMRIIHGSGYSDEDKRGFTKLVYQNIFTAMQAMIRAMDTLKIPYKYEHNKAHAQLVREVDVEKVSAFENPYVDAIKSLWNDPGIQECYDRRREYQLSDSTKYYLNDLDRVADPAYLPTQQDVLRVRVPTTGIIEYPFDLQSVIFRMVDVGGQRSERRKWIHCFENVTSIMFLVALSEYDQVLVESDNENRMEESKALFRTIITYPWFQNSSVILFLNKKDLLEEKIMYSHLVDYFPEYDGPQRDAQAAREFILKMFVDLNPDSDKIIYSHFTCATDTENIRFVFAAVKDTILQLNLKEYNLV
notes: source: Sf9 cells, co-expressed with Gβ1 and His6-Gγ2
Binder B1 has a Kd of 0.3 ± 0.2 nM.
